Experimental data reported in US10502741B2, “Means and methods for detecting activated MALT1” (Helmholtz Zentrum München Deutsches Forschungszentrum für …, priority 2014, dated 2019).
The star is where a group is joined. BODIPY(FL) = CC1=CC(C)=[N+]2C1=Cc1ccc(CCC(=O)*)n1[B-]2(F)F; AOMK = acyloxymethyl ketone C-terminal warhead; alkyne = not defined here

Tests used:
[1] = molecular target: T1, FLAG-MALT1 wt (Homo sapiens, UniProt Q9UDY8); experiment: Labeling with diagnostic MALT1 inhibitor after immunoprecipitation (gel-based, fluorescence scan); assay type: binding; details: probe pre-clicked to TAMRA, after FLAG immunoprecipitation in Jurkat T cells
T1 construct: expressed in transfected cells; host or cells: Jurkat T cells (pEF vector, electroporation)
T1 sequence (Q9UDY8 1-813 isoform Q9UDY8-2): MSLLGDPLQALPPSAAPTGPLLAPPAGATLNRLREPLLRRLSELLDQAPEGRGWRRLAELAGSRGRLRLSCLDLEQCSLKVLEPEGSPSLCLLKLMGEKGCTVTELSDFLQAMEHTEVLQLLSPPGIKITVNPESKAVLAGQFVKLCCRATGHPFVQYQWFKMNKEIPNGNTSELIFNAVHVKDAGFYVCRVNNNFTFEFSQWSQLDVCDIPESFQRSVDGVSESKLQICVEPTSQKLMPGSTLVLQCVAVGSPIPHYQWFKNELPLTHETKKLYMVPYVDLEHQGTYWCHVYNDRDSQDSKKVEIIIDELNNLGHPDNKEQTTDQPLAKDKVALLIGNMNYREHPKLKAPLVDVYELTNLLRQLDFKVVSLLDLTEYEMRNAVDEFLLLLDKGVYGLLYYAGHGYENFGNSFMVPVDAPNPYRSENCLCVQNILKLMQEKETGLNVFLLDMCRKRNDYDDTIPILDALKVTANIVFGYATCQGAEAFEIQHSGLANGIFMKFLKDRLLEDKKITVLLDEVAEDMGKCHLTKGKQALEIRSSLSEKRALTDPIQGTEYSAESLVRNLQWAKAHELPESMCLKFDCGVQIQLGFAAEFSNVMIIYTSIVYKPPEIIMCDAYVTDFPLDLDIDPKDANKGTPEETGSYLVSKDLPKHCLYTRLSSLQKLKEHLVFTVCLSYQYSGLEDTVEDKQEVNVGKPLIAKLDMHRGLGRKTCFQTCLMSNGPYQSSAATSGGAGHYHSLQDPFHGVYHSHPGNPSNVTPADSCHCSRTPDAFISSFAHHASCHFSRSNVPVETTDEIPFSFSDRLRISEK
Method: Jurkat T cells, transfected with active FLAG-[…] wt or active site mutant C464A, were stained after lysis and IP with probe 2, pre-clicked to TAMRA. Analysis was done by fluorescence staining.
Copper I-catalysed click chemistry reaction was performed in 50 μl 50 mM hepes with 10 μM alkyne-LRSR-AOMK (probe 2) and 10 μM N-TAMRA-3-aminopropylazide or 100 μM N-FITC-3-aminopropylazide. Reducing agent sodium ascorbate (0.5 mM), TBTA (50 μM) and CuSO4 (1 mM) were added to the reaction and incubated for 45 min at RT.
Cells were lysed in 500 μl co-IP buffer without protease inhibitors (25 mM hepes pH 7.5, 150 mM NaCl, 0.2% NP-40, 10% glycerol, 1 mM DTT, 10 mM sodium fluoride, 8 mM (3-glycerophosphate and 300 μM sodium vanadate), centrifuged (14000 rpm, 10 min, 4° C.) and overexpressed FLAG MALT1 was immunoprecipitated by FLAG (M2) antibody for 3 hours at 4° C. PGS was added for 1 h at 4° C., precipitate was washed 2× with co-IP buffer and 1× with 50 mM hepes pH 7.4. Precipitated MALT1 was incubated with 0.3 μM pre-clicked probe 2 (in 20 μl 50 mM hepes pH 7.4) for 50 min at 29° C., mixed with 4× loading dye and boiled for 3 min. After protein separation by SDS PAGE, staining with diagnostic inhibitor was detected by Typhoon Fluorescence Scanner (FITC laser 488 nm/filter 526 SP; TAMRA laser 532 nm/filter 580 BP).

[2] = molecular target: T2, active MALT1 (Homo sapiens, UniProt Q9UDY8); experiment: Labeling with diagnostic inhibitor in cell extracts (gel-based, fluorescence scan): active MALT1 band
T2 construct: endogenous in cells; host or cells: Jurkat T cells, primary human PBMCs and T cells, DLBCL cell lines (HBL1, TMD8, OCI-Ly3, OCI-Ly10, U2932, RIVA, BJAB, Su-DHL-4, Su-DHL-6)
T2 sequence (Q9UDY8 1-824): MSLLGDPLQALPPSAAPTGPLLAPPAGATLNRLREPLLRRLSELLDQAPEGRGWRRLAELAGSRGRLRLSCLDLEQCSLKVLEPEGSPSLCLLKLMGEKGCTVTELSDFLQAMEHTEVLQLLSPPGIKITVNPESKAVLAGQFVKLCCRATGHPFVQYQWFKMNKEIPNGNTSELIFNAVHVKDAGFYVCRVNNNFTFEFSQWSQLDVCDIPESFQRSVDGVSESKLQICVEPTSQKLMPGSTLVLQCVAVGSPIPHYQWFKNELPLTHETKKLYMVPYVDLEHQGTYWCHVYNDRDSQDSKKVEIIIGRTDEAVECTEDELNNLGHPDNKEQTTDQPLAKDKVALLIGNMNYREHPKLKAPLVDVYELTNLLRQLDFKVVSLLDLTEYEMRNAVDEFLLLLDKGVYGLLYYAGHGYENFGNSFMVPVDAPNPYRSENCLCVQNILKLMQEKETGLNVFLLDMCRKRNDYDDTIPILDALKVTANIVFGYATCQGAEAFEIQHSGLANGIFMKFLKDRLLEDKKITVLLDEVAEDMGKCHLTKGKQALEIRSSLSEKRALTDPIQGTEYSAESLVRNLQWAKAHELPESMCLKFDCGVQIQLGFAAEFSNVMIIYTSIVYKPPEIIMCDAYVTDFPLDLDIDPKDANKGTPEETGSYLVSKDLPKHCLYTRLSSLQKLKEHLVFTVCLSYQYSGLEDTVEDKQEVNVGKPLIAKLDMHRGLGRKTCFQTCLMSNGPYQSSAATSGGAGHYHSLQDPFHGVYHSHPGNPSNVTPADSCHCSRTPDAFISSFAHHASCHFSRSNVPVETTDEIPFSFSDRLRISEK
Method: (§1) Jurkat T cells were cultured in standard RPMI medium containing 10% FCS, 100 U/ml Penicillin/Streptomycin and 2 mM Glutamin. DNA transfection of 6 μg DNA in 8×10^6 Jurkat T cells was performed by electroporation in a GenePulser Xcell (BioRad) with a 220 Volt pulse. For siRNA experiments, Jurkat T cells were transfected with 100 nM siRNA and Atufect transfection reagent (Silence Therapeutics, Berlin). Jurkat T cells were stimulated either with 200 ng/ml PMA (phorbol 12-myristate 13-acetate) and 300 ng/ml Ionomycin (both Calbiochem) or CD3/CD28 antibody co-ligation (human CD3: 1 μg/ml; human CD28: 4 μg/ml; mouse IgG1: 2 μg/ml; mouse IgG2a: 2 μg/ml; BD Biosciences). DLBCL cell lines (HBL1, TMD8, OCI-Ly3, U2932, RIVA, BJAB, Su-DHL-4 and Su-DHL-6) were cultured in standard RPMI medium containing 20% FCS, 100 U/ml Penicillin/Streptomycin and 2 mM Glutamin. OCI-Ly10 cell line was cultured in IMDM containing 20% human serum, 100 U/ml Penicillin/Streptomycin, 2 U/ml heparine, 50 μM β-mercaptoethanol. Inhibitors 10 μM (z-VRPR-FMK, Mepazine, Thioridazine, CA-074Me) were added to the cells in media for 1 h, prior to stimulation and labeling with diagnostic MALT1 inhibitor.
(§2) Jurkat T cells (1-2×10^7), primary human PBMCs or primary human T cells (0.25 or 1×10^7) were lysed in 150 μl co-IP buffer without protease inhibitors. DLBCL (3×10^7) were lysed in 250 μl buffer. After centrifugation (14000 rpm, 10 min, 4° C.), 100 μl extract (DLBCL: 200 μl) was stained with probe 5 or probe 6 (3 μM end) for 50 min at 29° C., mixed with 4× loading dye and boiled.

[3] = molecular target: T2, active MALT1; experiment: as above; details: 2×10^6 primary human T cells, 3 μM probe
[4] = molecular target: cathepsin B (Homo sapiens, UniProt P07858); experiment: Labeling with diagnostic inhibitor in cell extracts (gel-based, fluorescence scan): about 30 kDa cathepsin B band; parameters: endogenous in cells; host or cells: Jurkat T cells; HBL1 and other DLBCL cell lines; details: Jurkat T cells, whole cell extract
Method: as §1, §2

active MALT1 signal in lymphoma whole cell extracts ([2]; ABC DLBCL cells (HBL1 for probe 6))	MALT1-probe labeling in GCB DLBCL cells ([2]; panel of GCB DLBCL pretreated with CA-074Me, whole cell lysates)	active MALT1 signal in primary human T cells, gel-based [3]	cathepsin B labeling compared with probe 5 [4]	Substance	labeling of overexpressed FLAG-MALT1 wt versus catalytic inactive mutant [1]	active MALT1 labeling compared with probe 5 ([2]; Jurkat T cells, whole cell extract)	MALT1-probe complex in ABC DLBCL cells ([2]; panel of ABC DLBCL pretreated with CA-074Me, whole cell lysates, no stimulation)
				alkyne-LRSR-AOMK (alkyne-LRSR-{AOMK}; not fully specified; reading uncertain) [probe 2, used pre-clicked to TAMRA]	FLAG-MALT1 wt but not the catalytic inactive mutant was detected		
weakly labeled active MALT1	all negative	weak active MALT1 signal	cathepsin B labeling was even reduced	(BODIPY-FL)-LRSR-AOMK ({BODIPY(FL)}-LRSR-{AOMK}) [probe 6]		slightly more effective in active MALT1 labeling	detected even in the absence of any stimulation
